The values below come from article PMC10729762, “CsrA selectively modulates sRNA-mRNA regulator outcomes”.

B1: McaS (structured_RNA)
RNA: ACCGGCGCAGAGGAGACAAUGCCGGAUUUAAGACGCGGAUGCACUGCUGUGUGUACUGUAGAGUCUGGCGGAUGUCGACAGACUCUAUUUUUU
B2: ChiX (structured_RNA)
RNA: ACACCGUCGCUUAAAGUGACGGCAUAAUAAUAAAAAAAUGAAAUUCCUCUUUGACGGGCCAAUAGCGAUAUUGGCCAUUUUUUU
B3: FnrS (structured_RNA)
RNA: GCAGGUGAAUGCAACGUCAAGCGAUGGGCGUUGCGCUCCAUAUUGUCUUACUUCCUUUUUUGAAUUACUGCAUAGCACAAUUGAUUCGUACGACGCCGACUUUGAUGAGUCGGCUUUUUUUU

The target in the data set is CsrA;Hfq (Escherichia coli K-12 …, UniProt P69913;P0A6X3 1-61;1-102, |). Nature of the data set: EMSA; 6 uM CsrA + Hfq, likely ternary complex; 10 nM denatured RNA, 0-6 uM CsrA, 0-3 uM Hfq; 1X binding buffer (10 mM Tris-HCl pH 7.5, 10 mM MgCl2, 100 mM KCl) plus CsrA dilution buffer, 11% glycerol, 20 mM. Conditions: protein: recombinant;recombinant; tags: ;; chain copies: 2;6; label: internal 32P-UTP.
Sequence of CsrA;Hfq (P69913 whole entry, chain 1 of 2): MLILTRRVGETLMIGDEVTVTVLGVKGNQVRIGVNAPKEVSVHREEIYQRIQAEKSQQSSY
Sequence of CsrA;Hfq (P0A6X3 whole entry, chain 2 of 2): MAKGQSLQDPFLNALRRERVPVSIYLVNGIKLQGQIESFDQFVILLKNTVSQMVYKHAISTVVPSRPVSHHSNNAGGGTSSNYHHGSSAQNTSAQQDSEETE
Turning to B1, the binding result is on record as “binds”. Take B2: the binding result was “binds”. Take B3: the binding result was “binds”.
